Source: patent US20260115256A1 (HANGZHOU SCIWIND BIOSCIENCES, published 2026)
*1 amine or outer side, *2 acyl side, *3 side chain or, on linkers, in order; H or OH if unused. Bridges are numbered along the chain shown (N, C = ends). Primed or numbered codes have the meaning given here. Where no end group is shown, it is not given here. Side-chain parts run from the residue outwards. [ ]: non-standard residue; d: D form. The star is where a group is joined. C20 diacid = O=C(O)CCCCCCCCCCCCCCCCCCC(=O)*; γGlu = O=C(O)[C@H](CCC(=O)[*:2])N[*:1]; βAsp = O=C(O)[C@H](CC(=O)[*:2])N[*:1]; Hyp = O=C(O)[C@@H]1C[C@@H](O)CN1; Cit = NC(=O)NCCC[C@H](N)C(=O)O; Orn = NCCC[C@H](N)C(=O)O; Dab = NCC[C@H](N)C(=O)O; Inp′ = not defined here; Trx′ = not defined here; AOC = not defined here; Dap = NC[C@H](N)C(=O)O; PEG = not defined here; AEEA = NCCOCCOCC(=O)O; Sar = CNCC(=O)O

T1: human amylin receptor (AMY3) on CHO-K1/Ga15/AMY3 cells (human, UniProt P30988 25-474; O60896 24-148)
T1 sequence (looked up) 1: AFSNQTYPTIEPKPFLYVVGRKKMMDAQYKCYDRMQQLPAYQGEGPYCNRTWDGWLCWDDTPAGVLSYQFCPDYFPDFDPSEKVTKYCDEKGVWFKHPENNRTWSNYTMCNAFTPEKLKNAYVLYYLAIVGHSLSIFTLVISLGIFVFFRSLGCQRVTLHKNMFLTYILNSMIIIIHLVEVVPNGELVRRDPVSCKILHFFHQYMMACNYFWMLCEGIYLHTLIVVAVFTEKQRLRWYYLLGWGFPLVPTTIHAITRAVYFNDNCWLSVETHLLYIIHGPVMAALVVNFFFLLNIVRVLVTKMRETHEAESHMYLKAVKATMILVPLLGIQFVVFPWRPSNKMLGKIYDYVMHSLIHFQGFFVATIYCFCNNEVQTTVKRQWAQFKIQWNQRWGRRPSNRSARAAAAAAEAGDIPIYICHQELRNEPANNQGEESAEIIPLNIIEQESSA
T1 sequence (looked up) 2: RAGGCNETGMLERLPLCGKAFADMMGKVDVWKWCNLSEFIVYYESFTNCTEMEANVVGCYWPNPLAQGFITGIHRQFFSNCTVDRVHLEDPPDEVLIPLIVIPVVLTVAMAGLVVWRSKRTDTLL


Molecular target: T1, human amylin receptor (AMY3) on …
Test: cell-based or functional assay

| EC50, CRE-luciferase assay | Binder |
| --- | --- |
| 0.017 nM | {C20 diacid-Inp′-AEEA-AEEA}-KCNTATCATQRLADFLRHSSNNLKPILPPTNVGSNT[Hyp]-NH2 (disulfide 2-7 (inferred)) [PD179] |
| 0.017 nM | {C20 diacid-AEEA-AEEA-Trx′}-KCNTATCATQRLADFLRHSSNNLKPILPPTNVGSNTP-NH2 (disulfide 2-7 (inferred); reading uncertain; also: printed as N-terminal: Trx + 2*AEEA + C20 diacid; C-terminal NH2) [PD190] |
| 0.037 nM | {C20 diacid-AEEA-AEEA-βAsp}-KCNTATCATQRLADFLRHSSNNLKPILPPTNVGSNT[Hyp]-NH2 (disulfide 2-7 (inferred)) [PD184] |
| 0.022 nM | {C20 diacid}-D[AEEA][AEEA]KCNTATCATQRLADFLRHSSNNLKPILPPTNVGSNT[Hyp]-NH2 (disulfide 5-10 (inferred)) [PD181] |
| 0.029 nM | {C20 diacid-Trx′-AEEA-AEEA}-KCNTATCATQRLADFLRHSSNNLKPILPPTNVGSNTP-NH2 (disulfide 2-7 (inferred); reading uncertain; also: printed as N-terminal: 2*AEEA + Trx + C20 diacid; C-terminal NH2) [PD189] |
| 0.016 nM | {C20 diacid-AEEA-AEEA}-KCNTATCATQRLADFLRHSSNNLKPILPPTNVGSNTX-NH2 (disulfide 2-7 (inferred); not fully specified (residue 37); printed as KCNTATCATQRLADFLRHSSNNLKPILPPTNVGSNT-trans-Hyp-NH2) [PD187] |
| 0.034 nM | {C20 diacid-AEEA-AEEA}-DKCNTATCATQRLADFLRHSSNNLKPILPPTNVGSNT[Hyp]-NH2 (disulfide 3-8 (inferred)) [PD182] |
| 0.025 nM | {C20 diacid-AEEA-AEEA-γGlu}-KCNTATCATQRLADFLRHSSNNLKPILPPTNVGSNTP-NH2 (disulfide 2-7 (inferred)) [PD188] |
| 0.052 nM | {C20 diacid-PEG-PEG-PEG-PEG-PEG-PEG-PEG-PEG-γGlu}-KCNTATCATQRLADFLRHSSNNLKPILPPTNVGSNT[Hyp]-NH2 (disulfide 2-7 (inferred); reading uncertain) [PD186] |
| 0.061 nM | {C20 diacid-Inp′-AEEA-AEEA}-KCNTATCATQRLADFLRHSSNNLKPILPPTNVGSNTP-NH2 (disulfide 2-7 (inferred)) [PD191] |
| 0.04 nM | {C20 diacid-βAsp-AEEA-AEEA}-KCNTATCATQRLADFLRHSSNNLKPILPPTNVGSNT[Hyp]-NH2 (disulfide 2-7 (inferred)) [PD183] |
| 0.016 nM | {C20 diacid-AEEA-AEEA-Inp′}-KCNTATCATQRLADFLRHSSNNLKPILPPTNVGSNT[Hyp]-NH2 (disulfide 2-7 (inferred)) [PD180] |

Second part, the binder before the results:

| Binder | EC50, CRE-luciferase assay |
| --- | --- |
| {C20 diacid-γGlu}-KCNTATCATQRLADFLRHSSNNL[Orn]PILPPTNVGSNTP-NH2 (disulfide 2-7 (inferred)) [PD170] | 0.041 nM |
| {C20 diacid-γGlu}-KCNTATCATQRLADFLRHSSNNLRPILPPTNVGSNTP-NH2 (disulfide 2-7 (inferred)) [PD161] | 0.026 nM |
| {C20 diacid-γGlu}-KCNTATCATQRLADFLRHSSNNL[Trx′]PILPPTNVGSNTP-NH2 (disulfide 2-7 (inferred); reading uncertain) [PD173] | 0.064 nM |
| {C20 diacid-γGlu}-KCNTATCATQRLADFLRHSSNNLNPILPPTNVGSNTP-NH2 (disulfide 2-7 (inferred)) [PD165] | 0.05 nM |
| {C20 diacid-γGlu}-KCNTATCATQRLADFLRHSSNNL[Cit]PILPPTNVGSNTP-NH2 (disulfide 2-7 (inferred)) [PD171] | 0.053 nM |
| {C20 diacid-Trx′-AEEA-AEEA}-KCNTATCATQRLADFLRHSSNNLKPILPPTNVGSNT[Hyp]-NH2 (disulfide 2-7 (inferred); reading uncertain) [PD177] | 0.024 nM |
| {C20 diacid-γGlu}-KCNTATCATQRLADFLRHSSNNL[Dab]PILPPTNVGSNTP-NH2 (disulfide 2-7 (inferred)) [PD169] | 0.039 nM |
| RCNTATCATQRLADFLRHSSNNLK([γGlu-C20 diacid])PILPPTNVGSNTP-NH2 (disulfide 2-7 (inferred)) [PD042] | 0.111 nM |
| {C20 diacid-γGlu}-KCNTATCATQRLADFLRHSSNNL[Sar]PILPPTNVGSNTP-NH2 (disulfide 2-7 (inferred)) [PD172] | 0.075 nM |
| {C20 diacid-γGlu}-KCNTATCATQRLADFLRHSSNNLHPILPPTNVGSNTP-NH2 (disulfide 2-7 (inferred)) [PD162] | 0.035 nM |
| {C20 diacid-AEEA-AEEA-γGlu}-KCNTATCATQRLADFLRHSSNNLKPILPPTNVGSNT[Hyp]-NH2 (disulfide 2-7 (inferred)) [PD176] | 0.029 nM |
| {C20 diacid-γGlu}-KCNTATCATQRLADFLRHSSNNLSPILPPTNVGSNTP-NH2 (disulfide 2-7 (inferred)) [PD166] | 0.054 nM |
| {C20 diacid-γGlu}-KCNTATCATQRLADFLRHSSNNLPPILPPTNVGSNTP-NH2 (disulfide 2-7 (inferred)) [PD163] | 0.084 nM |
| {C20 diacid-γGlu}-KCNTATCATQRLADFLRHSSNNL[Dap]PILPPTNVGSNTP-NH2 (disulfide 2-7 (inferred)) [PD168] | 0.041 nM |
| {C20 diacid-γGlu}-KCNTATCATQRLADFLRHSSNNL[aK]PILPPTNVGSNTP-NH2 (disulfide 2-7 (inferred)) [PD167] | 0.05 nM |
| RCNTATCATQRLAEFLRHSSNNLK([γGlu-C20 diacid])PILPPTNVGSGT[Hyp]-NH2 (disulfide 2-7 (inferred)) [PD041] | 0.259 nM |
| {C20 diacid-AEEA-AEEA-Trx′}-KCNTATCATQRLADFLRHSSNNLKPILPPTNVGSNT[Hyp]-NH2 (disulfide 2-7 (inferred); reading uncertain) [PD178] | 0.017 nM |
| {C20 diacid-γGlu}-KCNTATCATQRLADFLRHSSNNLKPILPPTNVGSNTP-NH2 (disulfide 2-7 (inferred)) [PD160] | 0.035 nM |
| {C20 diacid-γGlu}-KCNTATCATQRLADFLRHSSNNLDPILPPTNVGSNTP-NH2 (disulfide 2-7 (inferred)) [PD164] | 0.111 nM |
| RCNTATCATQRLAEFLRHSSK([AEEA-AEEA-γGlu-C20 diacid])NLGPILPPTNVGSNTP-NH2 (disulfide 2-7 (inferred)) [PD001] | 0.042 nM |
| {C20 diacid-γGlu}-KCNTATCATQRLADFLRHSSNNL[AOC]PILPPTNVGSNTP-NH2 (disulfide 2-7 (inferred); reading uncertain) [PD174] | 0.046 nM |
